The values that follow come from PMC8044209.

Where only a bound is given, the exact number is not on record here.

Assay [1] deals with Gcn4 cAD (Saccharomyces cerevisiae) (UniProt P03069). Put plainly: FP. To be noted: cited from earlier work.
Assay [2] has as its target Gcn4 nAD (Saccharomyces cerevisiae) (UniProt P03069). As to the kind of experiment: FP. To be noted: cited from earlier work.
Assay [3] has as its target Gcn4 tAD (Saccharomyces cerevisiae) (UniProt P03069). As to the kind of experiment: FP. To be noted: cited from earlier work.
Assay [4] deals with Gal4 AD (residues 828–881) labeled with Oregon Green 488 (yeast) (UniProt P04386). As to the kind of experiment: fluorescence polarisation; Oregon Green 488-labelled Gal4 AD; 15 concentrations of Med15 spanning 0–250 μM; 22 °C; 20 mM KH2PO4 pH 7.5, 200 mM KCl; one-site total binding model. For orientation: In fluorescence polarisation assays a small probe gives low polarisation when free and higher when bound to something large.

For assay [5], the target named is Gal4 AD (Gal4 residues 828–881) (yeast) (UniProt P04386). Put plainly: NMR titration; (1H,15N)- and (1H,13C)-HSQC titrations; unlabeled Gal4 AD or ABD added to ~200 μM 13C,15N-labelled AD or ABD; 25 °C; 20 mM sodium phosphate, 150 mM NaCl, 0.1 mM EDTA, 5 mM DTT, pH 6.5.
Another assay concerns the target Med15 ABD1 (yeast) (UniProt P19659). Put plainly: ITC; Gal4 AD in the syringe (1.11 mM), Med15 domain in the cell (ABD1 0.102 mM; ABD2 0.11 mM); 22 °C; 20 mM KH2PO4 pH 7.5, 200 mM KCl; single binding site model. (In general: In ITC the heat of successive injections is recorded.)
A further assay deals with Med15 ABD2 (yeast) (UniProt P19659). The assay is described as above.

The Kd is the free concentration of one partner at which half of the binding sites on the other are occupied at equilibrium, for simple one-to-one binding. With Med15 ABD2 (from UniProt P19659), the Kd was 147 µM in assay [1], 21.8 µM in assay [2] and 19.5 µM in assay [3].

Take “Med15 158–651 Δ239–272, Δ373–483 (ABD123) (from UniProt P19659 158-651) (domain or fragment)”: the Kd in assay [4] stood at 2.04 µM.

On to Med15 ABD123 (from UniProt P19659), for which the Kd in assay [2] is 0.36 µM.

Consider Med15 ABD1 (from UniProt P19659), for which the equilibrium dissociation constant (Kd) in assay [1] is 2.5 µM; in assay [2], 3.3 µM; in assay [3], 2.66 µM.

In assay [4], “Med15 ABD1 (from UniProt P19659 158-238) (domain or fragment)” showed a dissociation constant Kd of 9.24 µM. In assay [5], the exchange rate was greater than 250 s⁻¹ and the lifetime of the bound state is less than 4 ms.

As to “Gal4 AD (Gal4 residues 828–881) (from UniProt P04386 828-881) (domain or fragment)”, the equilibrium dissociation constant (Kd) in the assay with Med15 ABD1 (yeast) was determined as 9.2 µM; with Med15 ABD2 (yeast), 35 µM.

For “Med15 ABD2 (from UniProt P19659 277-368) (domain or fragment)”, the Kd in assay [4] was determined as 98 µM.

In assay [4], “Med15 484–651 (ABD3) (from UniProt P19659 484-651) (domain or fragment)” registered a Kd of 16.2 µM.

On to Med15 ABD3 (from UniProt P19659), for which the results for the dissociation constant Kd in assay [1], in assay [2] and in assay [3] were 13.9 µM, 2.6 µM and 4.4 µM, respectively.
